13 molecules from patent publication US20090011988A1 (Genentech, published 2009) can be followed below.

Positions of bridges follow the written chain, without caps; N, C: chain ends. No end group written: not given here.

B1: peptide-phage clone 4A3.1 (g8 display) (peptide, not shown: large carriers)
chain: SGTACYGGPEWWCCSLAGSP
modifications: not fully specified (bridges); also: displayed on M13 g8p phage, disulfide pairing of the three Cys not given here
notes: polyvalent display on M13 phage
B2: peptide-phage clone 4D3.3 (g8 display) (peptide, not shown: large carriers)
chain: SEEVCWPVAEWYLCNMWGR
modifications: not fully specified (bridges); cysteine pairing not given here; also: polyvalent display on M13 phage, fused via linker to g8p
notes: as for B1
B3: 4D3.12 (peptide)
peptide displayed on M13 phage as a fusion to g8p: AEWAECWIAGDQLLCVGKDN
modifications: not fully specified (bridges); cysteine pairing not given here; also: displayed on phage as g8p fusion
notes: whole phage particle in the assay; also called peptide-phage clone 4D3.12 (g8 display)
B4: peptide-phage clone 4C3.2 (g8 display) (peptide, not shown: large carriers)
chain: ELDGWVCIKVGEQNLCYLAE
modifications: not fully specified (bridges); cysteine pairing not given here; also: polyvalent display on M13 phage, fused via linker to g8p
notes: as for B1
B5: 4D3.8 (peptide)
peptide displayed on M13 phage as a fusion to g8p: SEEVCWPVAEWYLCNILGP
modifications: not fully specified (bridges); cysteine pairing not given here; also: displayed on phage as g8p fusion
notes: whole phage particle in the assay; also called peptide-phage clone 4D3.8 (g8 display)
B6: 4D3.9 (peptide)
peptide displayed on M13 phage as a fusion to g8p: ETVANCDCYMDLCLCYGSDR
modifications: not fully specified (bridges); cysteine pairing not given here; also: displayed on phage as g8p fusion
notes: whole phage particle in the assay; also called peptide-phage clone 4D3.9 (g8 display)

The target in the first test is T1, recombinant human IGFBP-3 (human, UniProt P17936 28-291). Kind of test: BIAcore competition, IGFBP-3 to IGF-1. As to the method: IGF-1 was immobilized on a dextran chip for inhibition assays using a BIACORE™ 2000 surface-plasmon-resonance device (BIAcore, Inc., Piscataway, N.J.) to measure free binding protein. IGF-1 was biotinylated as described above, and injected over a chip to which streptavidin had been coupled (BIAcore, Inc.) to give 400 to 800 RU (response units) of immobilized IGF-1. […] After incubation for >1 hour at room temperature, an aliquot of 20:L was injected at a flow rate of 20:L/min over the IGF-1 chip.
T1 sequence (P17936 28-291 limits assumed): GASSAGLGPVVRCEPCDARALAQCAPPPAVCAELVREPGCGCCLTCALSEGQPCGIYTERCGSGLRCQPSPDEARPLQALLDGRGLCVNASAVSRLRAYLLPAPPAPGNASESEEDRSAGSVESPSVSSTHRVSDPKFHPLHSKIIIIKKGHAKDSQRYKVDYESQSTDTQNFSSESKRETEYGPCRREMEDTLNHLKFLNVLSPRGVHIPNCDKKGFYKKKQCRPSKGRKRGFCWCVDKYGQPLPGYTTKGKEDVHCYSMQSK
In general terms: SPR reads the build-up and loss of mass on a sensor chip optically.
As for SEEVCWPVAEWYLCN (disulfide 5-14) [BP3-15], the IC50 was found to be 720 nM.

Consider SEEVCWPVAEWYLCNMWG (disulfide 5-14) [BP3-01-ox], for which the IC50 is 2000 nM.

In the next test the target is T1, recombinant human IGFBP-3. As to the kind of experiment: phage ELISA on IGFBP-3 plate, competitor IGF-1.
As for VAWEVCWDRHDQGYICTTDS (peptide, not shown: large carriers, polyvalent display on M13 phage) [peptide-phage clone 4D3.11 (g8 display)], the “% inhibition of phage binding by 100 nM IGF-1” value (“% inhibition of phage binding” for short) is 5%.

Take SGGAIYWPVEQFIAFMAVGK (peptide, not shown: large carriers, polyvalent display on M13 phage) [peptide-phage clone 23A3.3 (g8 display)]: the “% inhibition of phage binding” value is approximately 20%.

As for SGGAIYMPVEQFIAFMAVGK (peptide, not shown: large carriers, polyvalent display on M13 phage) [peptide-phage clone 23A3.5 (g8 display)], the “% inhibition of phage binding” value was approximately 20%.

Another test deals with T1, recombinant human IGFBP-3. As to the kind of experiment: BIAcore competition, IGFBP-3 to immobilized IGF-2. As to the method:
IGF-2 was immobilized on a dextran chip for inhibition assays using a BIACORE™ 2000 surface-plasmon-resonance device (BIAcore, Inc., Piscataway, N.J.) to measure free binding protein. IGF-2 was biotinylated as described above, and injected over a chip to which streptavidin had been coupled (BIAcore, Inc.) to give approximately 1500 RU of immobilized IGF-2. […] After incubation for >1 hour at room temperature, an aliquot of […] was injected at a flow rate of […] over the IGF-2 chip.
In the case of VCWPVAEWYLCN (disulfide 2-11) [BP3-17], the IC50 was 5100 nM.

With SEEVCWPVAEWYLCN (disulfide 5-14) [BP3-15], the IC50 was determined as 780 nM.

In the case of SEEVCWPVAEWYLCNMWG (disulfide 5-14) [BP3-01-ox], the IC50 was found to be 920 nM.

The target of another test is T1, recombinant human IGFBP-3. As to the kind of experiment: BIAcore competition, IGFBP-3 to immobilized IGF-1. As to the method:
IGF-1 was immobilized on a dextran chip for inhibition assays using a BIACORE™ 2000 surface-plasmon-resonance device (BIAcore, Inc., Piscataway, N.J.) to measure free binding protein. IGF-1 was biotinylated as described above, and injected over a chip to which streptavidin had been coupled (BIAcore, Inc.) to give 400 to 800 RU (response units) of immobilized IGF-1. […] After incubation for >1 hour at room temperature, an aliquot of 20:L was injected at a flow rate of 20:L/min over the IGF-1 chip. […]
As for VCWPVAEWYLCN (disulfide 2-11) [BP3-17], the IC50 was determined as 9000 nM.

Regarding SEEVCWPVAEWYLCN (disulfide 5-14) [BP3-15], the IC50 came to 750 nM.

Take SEEVCWPVAEWYLCNMWG (disulfide 5-14) [BP3-01-ox]: the IC50 turned out to be 2000 nM.

The target of a further test is T1, recombinant human IGFBP-3. As to the kind of experiment: phage ELISA (IGF-blocking phage assay): titration of g8 peptide-phage on an IGFBP-3-coated plate in the presence of 100 nM IGF-1; OD492. How it is done:
(§1) The plates were then washed ten times, as above, and a solution of rabbit anti-phage antibody mixed with a goat-anti-rabbit conjugate of horseradish peroxidase was added. After an incubation of 1 hour at room temperature, the plates were developed with a chromogenic substrate, o-phenylenediamine (Sigma). The reaction was stopped with addition of ½ volume of 2.5 M H₂SO₄. Optical density at 490 nm was measured on a spectrophotometric plate reader.
Regarding B1, the binding result was “binds”.

B2: the binding result is “binds”.

DMGVCADGPWMYVCEWTE (peptide, not shown: large carriers, polyvalent display on M13 phage) [peptide-phage clone 4B3.4 (g8 display)]: the binding result is listed as “binds”.

The next test addresses T1, recombinant human IGFBP-3. Kind of test: phage ELISA (IGF-blocking phage assay): g8 peptide-phage at a 50-fold dilution on an IGFBP-3-coated plate, without and with IGF-1; OD492. How it is done:
as §1
In each case, the phagemid clone was grown from a single colony overnight at 37° C. in a culture volume of 5 ml. The phage particles were precipitated and resuspended in 0.5 ml of PBS buffer.
Consider B3, for which the binding result is “binds”.

Take B4: the binding result is “binds”.

In the case of B5, the binding result is “binds”.

As for B6, the binding result is reported as “binds”.

What is called IC50 is the concentration at which inhibition is half-maximal.
